For five molecules, binding result and Kd results are on record in publication PMC12205872, “ESSENTIAL MEIOTIC ENDONUCLEASE 1 is required for chloroplast development and DNA repair in rice”.

A word on the Kd: it is the equilibrium constant for the complex coming apart.

For data set [1], the target named is T1, OsEME1 (MBP removed by TEVp) (Oryza sativa L. japonica cv. KY131, UniProt Q0J9J6 1-650).
T1 sequence: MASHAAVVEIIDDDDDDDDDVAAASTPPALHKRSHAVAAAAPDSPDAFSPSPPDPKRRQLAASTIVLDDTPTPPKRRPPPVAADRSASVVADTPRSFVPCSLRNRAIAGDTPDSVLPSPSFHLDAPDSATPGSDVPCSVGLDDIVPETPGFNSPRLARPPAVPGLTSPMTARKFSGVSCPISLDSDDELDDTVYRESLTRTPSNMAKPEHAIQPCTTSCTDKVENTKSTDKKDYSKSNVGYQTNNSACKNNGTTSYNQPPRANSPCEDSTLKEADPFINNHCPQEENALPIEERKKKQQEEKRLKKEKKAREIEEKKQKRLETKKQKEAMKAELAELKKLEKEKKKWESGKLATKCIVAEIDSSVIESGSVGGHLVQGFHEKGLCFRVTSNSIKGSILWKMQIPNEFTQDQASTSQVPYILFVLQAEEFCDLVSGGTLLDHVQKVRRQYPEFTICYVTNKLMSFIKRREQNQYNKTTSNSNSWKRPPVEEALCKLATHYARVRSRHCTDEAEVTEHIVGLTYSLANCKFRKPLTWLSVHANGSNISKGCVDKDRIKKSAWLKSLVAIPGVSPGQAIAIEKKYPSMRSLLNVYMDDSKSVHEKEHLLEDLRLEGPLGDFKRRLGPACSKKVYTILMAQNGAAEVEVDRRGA
Description: EMSA; 20 uM protein, 1 mM Mg2+, 5 mM ATP; EMSA/cleavage: 25 mM Tris-HCl pH 7.5, 1 mM MgCl2, 100 mg/mL BSA (so in the source), 1 mM DTT, 5 mM ATP, 2.5 uM Cy5 substrate, 20 uM protein, 30 C, 15% TBE-PAGE after. To be noted: protein: recombinant, tags: MBP cleaved by TEVp, splayed Y: X1 1-25 paired with X2 26-50, 25 nt unpaired arms. A general note: Mobility shift assays separate free from complexed probe on a gel.

Data set [2] concerns the target T2, OsEME1-MBP (MBP fusion, used in MST) (Oryza sativa L. japonica cv. KY131, UniProt Q0J9J6 1-650).
T2 sequence: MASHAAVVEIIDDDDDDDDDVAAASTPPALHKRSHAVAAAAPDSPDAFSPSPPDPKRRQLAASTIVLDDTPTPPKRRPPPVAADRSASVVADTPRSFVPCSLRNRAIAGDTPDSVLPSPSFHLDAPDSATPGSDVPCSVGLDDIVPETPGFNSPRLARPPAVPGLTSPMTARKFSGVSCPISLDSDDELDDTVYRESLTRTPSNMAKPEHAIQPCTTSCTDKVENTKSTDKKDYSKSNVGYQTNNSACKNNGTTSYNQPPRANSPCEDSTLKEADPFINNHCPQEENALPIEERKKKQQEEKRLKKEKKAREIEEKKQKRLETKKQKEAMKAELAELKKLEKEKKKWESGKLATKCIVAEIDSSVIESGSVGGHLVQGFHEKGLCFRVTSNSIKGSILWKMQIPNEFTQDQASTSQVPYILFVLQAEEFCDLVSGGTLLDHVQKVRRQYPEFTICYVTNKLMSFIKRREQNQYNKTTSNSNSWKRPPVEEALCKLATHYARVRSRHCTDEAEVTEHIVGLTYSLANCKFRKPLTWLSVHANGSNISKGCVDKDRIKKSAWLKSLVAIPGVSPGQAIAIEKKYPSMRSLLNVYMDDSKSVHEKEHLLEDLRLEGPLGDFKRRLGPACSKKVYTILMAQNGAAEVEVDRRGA
Kind of data set: MST; 100 nM DNA, 30 C; substrate called Y-Flag in Methods; EMSA/cleavage: 25 mM Tris-HCl pH 7.5, 1 mM MgCl2, 100 mg/mL BSA (so in the source), 1 mM DTT, 5 mM ATP, 2.5 uM Cy5 substrate, 20 uM protein, 30 C, 15% TBE-PAGE after. To be noted: protein: recombinant; tags: MBP; splayed Y: X1 1-25 paired with X4 26-50; 25 nt unpaired 3' arm of X1 and 5' arm of X4.

The target of data set [3] is T3, OsMUS81 (MBP removed by TEVp) (Oryza sativa L. japonica cv. KY131, UniProt Q8GT06 1-660).
T3 sequence: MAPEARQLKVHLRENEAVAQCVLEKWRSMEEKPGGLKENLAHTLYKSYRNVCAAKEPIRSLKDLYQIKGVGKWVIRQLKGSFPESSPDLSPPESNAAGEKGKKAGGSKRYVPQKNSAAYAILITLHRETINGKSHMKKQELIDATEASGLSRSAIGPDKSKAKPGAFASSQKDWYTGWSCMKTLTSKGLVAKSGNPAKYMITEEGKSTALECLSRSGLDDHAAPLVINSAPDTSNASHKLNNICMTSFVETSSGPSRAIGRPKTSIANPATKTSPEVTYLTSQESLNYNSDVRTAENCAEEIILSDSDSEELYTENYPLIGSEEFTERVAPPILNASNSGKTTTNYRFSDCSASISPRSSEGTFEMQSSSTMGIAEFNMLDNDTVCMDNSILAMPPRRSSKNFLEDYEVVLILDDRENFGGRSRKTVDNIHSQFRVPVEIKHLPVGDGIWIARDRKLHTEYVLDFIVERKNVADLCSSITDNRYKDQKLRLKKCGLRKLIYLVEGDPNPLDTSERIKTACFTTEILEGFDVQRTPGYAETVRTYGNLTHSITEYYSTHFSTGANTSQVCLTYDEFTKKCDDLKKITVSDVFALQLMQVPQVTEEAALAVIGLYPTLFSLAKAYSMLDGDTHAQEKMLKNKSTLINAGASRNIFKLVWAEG
Description: EMSA; 1 mM Mg2+, 5 mM ATP; not responsible for cleavage; EMSA/cleavage: 25 mM Tris-HCl pH 7.5, 1 mM MgCl2, 100 mg/mL BSA (so in the source), 1 mM DTT, 5 mM ATP, 2.5 uM Cy5 substrate, 20 uM protein, 30 C, 15% TBE-PAGE after. To be noted: protein: recombinant, tags: MBP cleaved by TEVp, label: Cy5 on X1 (3' end).

B1: OsGLK2-Y12 (mixed)
DNA 1: GAAGAAGAAGGACGACGAGGAAAGGTCGTCGTCGTTGCCGGAGGAGAAAG
DNA 2: CTCCGTCGTCACCGCGCTCAGGACCCCTTTCCTCGTCGTCCTTCTTCTTC
In the case of B1, in data set [1] (label: 5' Cy5 on GLK2 X1), the binding result is “binds”.

B2: Y12 (mixed)
DNA 1: GACGCTGCCGAATTCTGGCTTGCTAGGACATCTTTGCCCACGTTGACCCG
DNA 2: GCGATAGTCTCTAGACAGCATGTCCTAGCAAGCCAGAATTCGGCAGCGTC
Regarding B2, the Kd in data set [2] is 16.3 ± 2.16 µM.

B3: X12 (structured_DNA)
DNA 1: GACGCTGCCGAATTCTGGCTTGCTAGGACATCTTTGCCCACGTTGACCCG
DNA 2: CGGGTCAACGTGGGCAAAGATGTCCTAGCAATGTAATCGTCTATGACGTC
DNA 3: GACGTCATAGACGATTACATTGCTAGGACATGCTGTCTAGAGACTATCGC
DNA 4: GCGATAGTCTCTAGACAGCATGTCCTAGCAAGCCAGAATTCGGCAGCGTC
Take B3: the binding result in data set [3] (four-way Holliday junction with 12-bp mobile homologous core) was “binds”.

B4: pre-X12 (mixed)
DNA 1: GACGCTGCCGAATTCTGGCTTGCTAGGACATCTTTGCCCACGTTGACCCG
DNA 2: CGGGTCAACGTGGGCAAAGATGTCCTAGCAATGTAATCGTCTATGACGTC
DNA 3: GCGATAGTCTCTAGACAGCATGTCCTAGCAAGCCAGAATTCGGCAGCGTC
With B4, the binding result in data set [3] (three-strand junction: X1 1-25 with X4 26-50, X1 26-50 with X2 1-25, X2 3' and X4 5' arms single-stranded) is “binds”.

B5: OsGLK1-Y12 (mixed)
DNA 1: CGTCGATGACATAGACTTCGGGGACTTCTTCCTGAGGCTGGAGGACGGTG
DNA 2: GAAGTCGGTGAAGATCTCGGCCGGGGTCCCCGAAGTCTATGTCATCGACG
In the case of B5, the binding result in data set [1] (label: 5' Cy5 on GLK1 X1) is recorded as “binds”.
